B1: TPR t1 (parent)
chain: GACCAAUCUGCCCUCAGAGCUCGAGAACAUCUUCGGAUGCAGAGGAGGCAGGCUUCGGUGGCGCGAUAGCGCCAACGUCCUCAACCUCCAAUGCAUCCCACCACAUGAUGAUGCCUGAAGAGCCUUGGUUUUUUG

Variants of: B1
Assay: polymerase ribozyme fitness, log enrichment relative to wild type (log ratio); higher = more active; in vitro selection for triplet polymerase activity
Summary of the method: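 For each subunit of a heterodimeric triplet polymerase ribozyme, a mutant library was built by PCR and transcribed, then taken through a single in vitro selection round in triplicate. Selection involved annealing to a biotinylated primer, the partner subunit and triplets, incubation frozen at −7 °C, gel excision of extended constructs, capture on streptavidin beads and RT-PCR. Genotypes were retained after Illumina sequencing of inputs and outputs only with ≥10 input reads and ≥1 read in each output. Fitness is defined as the logarithm of a genotype's enrichment relative to wild-type enrichment, using inverse-variance-weighted averages across replicates, with the logarithm taken to base 2.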

Variant	polymerase ribozyme fitness (log ratio)
G39U C40U G42A C56U	-2.23
G39A G48C	-1.23
C40A C64U	-2.19
G39C G45A	-0.954
G39C C97A	-5.8
G39A G128A	-2.58
G39U A68G C70U A121U	-2.23
C40A C124U	0.897
G39U U92C C101G	-5.46
G39C G71U	-0.983
G39A G48U G71U U116A U129A	-5.41
C40A G61C U126G	-5.2
G39A G51U	-3.49
G39U C94U G113C A118C	-3.27
G39U C115G	-2.58
G39A G45C G60U G69U C82U	-5.66
G39A G71C	-2.63
G39C C88U G135U	-2.39
G39A C80A C98U U133A	-6.34
G39A G45C	-2.32
G39A C49A C98A U112C	-3.94
G39A G110U	-2.32
C40A C62A A118G	-2.61
G39U A68G C123U U133A	-2.96

Variant	polymerase ribozyme fitness (log ratio)
C40A U78C U92A C115U	-4.02
G39C C98A	-5.08
C40A A41U G69U G135C	-0.488
C40A A41C C49A C70U U92A C102G U109A	-6.25
C40A C89G C94A	-4.16
G39U U106C	-0.461
G39U G61A A75U U81C C99A G117U	-7.32
G39U G61C	-1.66
G39A G51U U129G	-5.53
C40A C49U U59A G60A G117C	-7.16
C40A C102A G113U C124A	-6.46
G39C G48A C49U C89A	-4.19
G39U C56G C102U	-2.53
C40G A100C	-2.29
C40G A43C A111C A119G	-4.45
G39A G44C	-1.34
G39A G61A	-0.128
C40A U54C C82G A118U C123U	-0.573
C40A G60A G113U G122C	-4.23
G39U C49A C72A G93C A95C C115U	-5.1
C40A U78A C79U U109A	-6.14
G39C C40A	-3.01
C40A G61C A118U U130G	-3.57
G39A C64U A90G G135U	-1.27

Variant	polymerase ribozyme fitness (log ratio)
C40A C79A	-2.9
G39A C56U	-0.755
G39A G93A U112G C123A	-3.6
C40A A50G G71U C85U	-2.76
G39A U78C	-1.06
C40A C88A G117A	-3.85
G39A A66C C86G	-2.29
G39C U78A	-0.87
C40G C49U A74U U78A	-3.07
C40A C79G G93C G110A U133A	-5.44
G39U G113A U132A	-2.47
G39U C88U A121G	0.804
G39U C49U C56U	-1.53
G39A C73A G93U	-2.29
G39A C88A	-1.32
G39A U129C	-0.434
G39A A83U U106A C114U	-4.87
G39U C123G	0.0216
G39U C123U	0.845
C40A A43U C70U C86U G93U C97G G135C	-6.34
G39U A43C C62U G127A	-4.5
G39A G44U C82A A95C C115G	-3.83
G39A A111C	-0.291
G39C U109A G110U	-3.37

Variant	polymerase ribozyme fitness (log ratio)
G39U C70G	-4.12
G39C C86U	-2.09
G39U C62U	-1.71
G39A C73U U106A U109C G113A G117A	-5.45
G39U C53G C123U	1.06
G39U C86G C104A	-4.01
G39U C49U C97A C124A G127A	-5.83
C40A G48U	-1.61
C40A G60A C85G	-2.93
G39U A74G G110C A111G	-5.64
G39U A50U G60U G61A C79A	-3.64
G39U C124A	0.161
G39U C101G	-3.29
G39U G51A A118G	-4.52
G39A C72U U78C C99U G120A U126C	-2.95
G39C C56G A111C G128A	-3.6
G39A C123A	-0.277
C40A C56U C72G	-3.26
G39U C62U G117U	-3.18
G39C C101A	-1.69
C40A C85A	-1.95
C40A C64U C80U	-2.24
G39U C49G C64U G117C	-4.42
G39C C115U G120C	-1.04

Variant	polymerase ribozyme fitness (log ratio)
G39U C56U C73U	-1.4
C40A G47A	-3.03
G39A G135C	-0.0346
G39A C49G C62G A90C G113A	-6.39
C40G A111C	-0.485
C40G A111G	-0.323
G39U G77U C89U	-1.38
G39U G120A	-0.0767
G39U G61A C101U G117A A118G U125A	-0.872
G39U C49A C80U	-3.62
C40A C72G U78C A121G U132A	0.388
C40A G48A C86A	-2.18
G39U C70U A103C C114U A119U G120A U130A	-5.71
G39U G110C A121C	-4.8
C40A G47A G63U	-4.41
G39U G48U	-1.59
G39U G61C U130G	-2.15
C40A G42A C56G C72A A84C	-4.52
G39A C49A	-0.508
C40A U78G C88G	-4.1
C40A C104U G110A C124U	-2.31
G39U G61U U106A	-0.274
G39C U54G C70A	-3.74
G39C A43C G69U C82G U96C	-3.31

Variant	polymerase ribozyme fitness (log ratio)
G39A U54A	-0.685
G39C U55A C56A G63U A121U	-4.47
G39C C72U	-1.18
G39U C72G C82G	-2.35
C40G A43C G69U G120C	-0.592
C40G A74G C86A	-1.94
C40A G60A G110C	-6.85
C40G C49G G61U U87G U129A	-2.49
C40G A43U U112G A119U U126A	-4.57
G39U G45A	-2.22
C40G A46U C56A U92A C114U	-6.09
C40A U92G	-2.37
G39U G60A C76G	-3.27
C40A A74G U130C	-0.804
G39A G48A C56G G69U A105C	-2.52
C40A G61U G93U A100C	-1.18
G39C C49U	-1.61
G39U G44U C53G C62A C98U U112A U129C U130A	-5.78
C40A A43U G44C G71U C82A	-4.65
C40A A46U C79G C104U	-6.75
G39U C62A C70U	-2.07
G39U G45C U87A C114U	-6.43
G39U G63A	-1.75
G39U A50U	-1.79

Variant	polymerase ribozyme fitness (log ratio)
G39C U54A A74G	-0.531
G39A C124U	1.26
G39U U78C G120A	0.169
G39U G52A	-1.4
G39U G52U	-1.9
C40G A90C U106C U116G A119G U125G	-3.17
G39A C94U	-0.565
C40A A105G	-4.43
C40A A84G A95C U125G U126G U129A	-4.98
G39U G113A	-1.25
C40A G93A A111C	-1.04
C40A G135U	-2.63
G39A C62U	-0.84
G39A C62G	-2.59
C40A G77A A84U C94U U106A	-2.81
G39U G128C	-3.25
G39A C102U A118G	-2.73
G39A C104U	-0.931
G39A C104A	-2.08
C40A C114G	-3.8
C40A G48A U55A G60A A95G G120C	-1.53
G39U C53A C82A C124G	1.35
G39U G63C A91C G113U A121C	-3.83
